Assay results reported in patent US20030161791A1, “Water-soluble polymer conjugates of retinoic acid” (priority 2001, published 2003).

Legend:
[1] = Hydrolysis rate of PEG-ATRA ester conjugate in phosphate buffer; assay type: physicochemical; details: phosphate buffer 0.1M, pH 7.0, 0.5 wt %, pseudo-first-order kinetics
Experimental: The rate of hydrolysis in buffer of an exemplary PEG-ATRA conjugate in accordance with the invention was determined at two different temperatures, room temperature and body temperature.
MPEG 5 kDa ATRA (see Example 1) was dissolved in phosphate buffer (0.1M, pH 7.0) at a concentration of 0.5 wt % at temperatures of 23° C. and 37° C. At timed intervals, aliquots were removed for analysis by analytical reverse phase HPLC. The hydrolysis half-lives were obtained using pseudo-first-order kinetics. […] Thus, these conjugates can be characterized as water-soluble prodrugs forms of the retinoid.

[2] = Recovery of ATRA and conjugate in plasma and lung tissue after intratracheal instillation in male rats; assay type: in vivo, Sprague Dawley Rats
Experimental: The following study in rats was conducted to determine plasma and lung tissue concentrations of non-PEGylated all-trans retinoic acid (ATRA control) versus a PEGylated all-trans retinoic acid, mPEG (5 kD)ATRA Ester Conjugate, after intratracheal instillation to male rats.
Animals: Hilltop Lab Animals Inc (P.O. Box 183, Scottdale, Pa. 15683) supplied pre-cannulated jugular vein catheter [JVC]) Sprague Dawley Rats (350-375 grams). The test system included 2 male rats randomly chosen for each of the 6 test groups.
ATRA and PEG-ATRA Samples: Non-PEGylated All-Trans Retinoic Acid was supplied as a powder containing 50% ATRA by weight (Control Article). The powder was stored at −20° C. and protected from light. Methoxy PEG (5 kD) ATRA ester conjugate (Test Article) was provided as a powder containing 5% ATRA by weight which was stored at −20° C. and protected from light.
ATRA Stock Solution/Control (2.0 mg/ml Stock): 3.0 mL of PBS was added to 6.0 mg of the ATRA powder. This solution was dosed as a suspension to the rats after sonication and vortexing.
Methoxy PEG (5 kD) ATRA ester conjugate (20.0 mg/mL Stock): 3.0 mL of PBS was added to 60.0 mg of the methoxy PEG (5 kD) ATRA ester conjugate powder.
Intratracheal Instillation: Administration of the control and test articles was achieved by intratracheal instillation under yellow lighting. The rats were lightly anesthetized using inhaled 3.0-5.0% isoflurane mixed with oxygen in a plexiglass anesthesia chamber. The dose was administered by inserting a gavage needle fitted with a 1 mL syringe into the mouth of the rat down the trachea to just above the carina. The dose was administered into the lungs utilizing this method, and then the gavage needle was removed. The animal was placed back in its cage and allowed to recover from the anesthesia on its own after the dosing procedure.
Rats were dosed IT with 354 μg (1.2 μmole) of RA or […] (1 μmole) ATRA equivalent of mPEG5K-ATRA.
Blood Collection: Predose blood samples of approximately 3.0 ml were collected from the jugular vein catheter into heparinized plasma tubes. At the designated sacrifice time for each animal a surgical plane of anesthesia was induced by using inhaled 3.0-5.0% isofluorane mixed with oxygen. […]
ATRA and PEG-ATRA were extracted from whole rat lung by first weighing and transferring the rat lung to an amber vial and cutting the lung into small pieces. […] The sample was then analyzed by HPLC.
Sample Analysis: Plasma and lung tissue samples were analyzed for all-trans retinoic acid concentrations by reverse-phase high performance liquid chromatography (HPLC) procedures for the lung tissue and by a liquid chromatography tandem mass spectrophotometer (LC-MS-MS) technique for the plasma samples. […]

[3] = Stability (degradation) of PEG-retinoid compositions versus unmodified parent retinoid; assay type: physicochemical; details: without free radical scavenger
Excerpt: Additionally, a composition in accordance with the invention will preferably contain a free radical scavenger such as butylatedhydroxytoluene (BHT), ascorbic acid (vitamin C), or alpha tocopherol […]. […] Incorporation of a free radical scavenger in the composition was effective to substantially reduce or effectively eliminate free-radical induced degradation of the conjugate.

Compound | half-life (t 1/2) of the hydrolysis ([1]; 23° C.) | half-life (t 1/2) of the hydrolysis ([1]; 37° C.) | plasma retinoic acid (ATRA) concentration ([2]; rat plasma, one-hour timepoint, LC-MS-MS) | retained in the lung ([2]; rat, for at least up to 2 hours post administration, HPLC of lung tissue) | stability of the composition relative to compositions of the unmodified parent retinoid [3] | concentration at 1 h ([2]; male, Sprague Dawley, other: intratracheal instillation, 354 μg, rat plasma, one-hour timepoint, LC-MS-MS, read-out: plasma retinoic acid (ATRA) concentration) [ng/mL] | retention in the lung compared with pegylated / unmodified counterpart ([2]; rat, lung tissue (FIG. 3))
mPEG (5 kDa) ATRA Ester Conjugate [Example 1] | about 3500 hours | about 877 hours | approximately 65 ng/ml | greater than 70 % of the dose | more prone to degradation | – | –
CC1=C(/C=C/C(C)=C/C=C/C(C)=C/C(=O)O)C(C)(C)CCC1 [ATRA, all trans retinoic acid, reference compound] | – | – | – | – | – | ~145 | to a lesser degree
